Consider 18 molecules from US20180037654A1 (ADURO BIOTECH HOLDINGS EUROPE B V, published 2018).

Positions count from the first letter of the chain named. Numbers in names are those of the source.

The chains are these.
T1: Mou-Hum-CTLA-4 (mouse/human chimera)
T1 construct: Mouse residues on strand 1, 2, 5 and 6 and human residues on strand 3, 4, 7 and 8; transiently expressed on CHO-K1 cells; also called mouse-human variant; mouse-human exchange mutant
T1 chain: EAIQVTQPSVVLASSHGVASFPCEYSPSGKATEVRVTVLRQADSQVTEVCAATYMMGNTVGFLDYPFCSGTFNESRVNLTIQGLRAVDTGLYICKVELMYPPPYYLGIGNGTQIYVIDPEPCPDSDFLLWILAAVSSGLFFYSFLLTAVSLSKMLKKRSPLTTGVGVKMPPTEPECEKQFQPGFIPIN

B1: 10D1 (antibody, V domains shown)
VH: QVQLVESGGGVVQPGRSLRLSCAASGFTFSSYTMHWVRQAPGKGLEWVTFISYDGNNKYYADSVKGRFTISRDNSKNTLYLQMNSLRAEDTAIYYCARTGWLGPFDYWGQGTLVTVSS
VL: not shown
B2: hCTLA4.27A.C1 (antibody, V domains shown)
VH: QVQLQQPGAVLVRPGVSVKLSCKASGYSFTTYWMNWVKQRPGQGLEWIGMIHPSDSETSLNQAFKDKATLTIDKSSSTAYMQLSSPTSEDSAVYFCARMGRRNPYYFDYWGQGTTLTVSS
VL: DIQMTQSPVSLSVSVGETVTITCRPSENLYTNLAWYQQKQGKSPQLLVYGATNLADGVPSRFSGSGSGTQYSLRINSLQSEDFGTYYCQHLWGTPFTFGSGTKLELK
notes: Chimeric: mouse variable domains on human IgG1, kappa; also called hCTLA4.27A chimeric hIgG1
B3: hCTLA4.27H6L1 (antibody, human IgG4 S228P, kappa, V domains shown)
VH: EVQLLESGPELVRPGSSVKISCKASGYSFTTYWMNWVKQRPGKGLEWIGMIHPSDSETSLNQAFKDKVKLTAATSASIAYLEFSSLRNEDSAVYYCARMGRRNPYYFDYWGQGTLVTVSS
VL: DIQMTQSPSSLSASVGDRVTITCRPSENLYTNLAWYQQKPGKAPKLLLYGATNLADGVPSRFSGSGSGTDYTLTISSLQPEDFATYYCQHLWGTPFTFGQGTKLEIKR
notes: Humanized, human IgG4 (S228P) kappa; H6 read as hCTLA4.27VH6, L1 as hCTLA4.27VL1
B4: hCTLA4.27H2L2 (antibody, human IgG4 S228P, kappa, V domains shown)
VH: EVQLVQSGAVLVKPGASVKVSCKASGYSFTTYWMNWVRQRPGKGLEWIGMIHPSDSETSLNQAFKDKVTITADESTSTAYMQLSSLRSEDTAVYYCARMGRRNPYYFDYWGQGTTVTVSS
VL: B3 VL with L48I, D70E, Y71F, T72S, T74S, Q100G, L104V
notes: Humanized, human IgG4 (S228P) kappa; H2 read as hCTLA4.27VH2, L2 as hCTLA4.27VL2
B5: hCTLA4.27H4L2 (antibody, human IgG4 S228P, kappa, V domains shown)
VH: EVQLVQSGAEVKKPGASVKVSCKASGYSFTTYWMNWVRQAPGQGLEWMGMIHPSDSETSLNQAFKDRVTMTRDTSTSTVYMELSSLRSEDTAVYYCARMGRRNPYYFDYWGQGTLVTVSS
VL: B3 VL with L48I, D70E, Y71F, T72S, T74S, Q100G, L104V
notes: Humanized, human IgG4 (S228P) kappa; H4 read as hCTLA4.27VH4, L2 as hCTLA4.27VL2
B6: hCTLA4.27H3L1 (antibody, human IgG4 S228P, kappa, V domains shown)
VH: B5 VH with E10V, K12A, A16S, M70I, R72A, T74K, V79A, R87T, L115T
VL: B3 VL
notes: Humanized, human IgG4 (S228P) kappa; H3 read as hCTLA4.27VH3, L1 as hCTLA4.27VL1
B7: hCTLA4.27H6L2 (antibody, human IgG4 S228P, kappa, V domains shown)
VH: B3 VH
VL: B3 VL with L48I, D70E, Y71F, T72S, T74S, Q100G, L104V
notes: Humanized, human IgG4 (S228P) kappa; H6 read as hCTLA4.27VH6, L2 as hCTLA4.27VL2
B8: hCTLA4.27H2L5 (antibody, human IgG4 S228P, kappa, V domains shown)
VH: B4 VH
VL: B3 VL with S7A, P80A, Q100G
notes: Humanized, human IgG4 (S228P) kappa; H2 read as hCTLA4.27VH2, L5 as hCTLA4.27VL5
B9: hCTLA4.27H4L1 (antibody, human IgG4 S228P, kappa, V domains shown)
VH: B5 VH
VL: B3 VL
notes: Humanized, human IgG4 (S228P) kappa; H4 read as hCTLA4.27VH4, L1 as hCTLA4.27VL1
B10: hCTLA4.27H4L3 (antibody, human IgG4 S228P, kappa, V domains shown)
VH: B5 VH
VL: B3 VL with R18T, P80S
notes: Humanized, human IgG4 (S228P) kappa; H4 read as hCTLA4.27VH4, L3 as hCTLA4.27VL3
B11: hCTLA4.27H2L1 (antibody, human IgG4 S228P, kappa, V domains shown)
VH: B4 VH
VL: B3 VL
notes: Humanized, human IgG4 (S228P) kappa; H2 read as hCTLA4.27VH2, L1 as hCTLA4.27VL1
B12: hCTLA4.27H3L5 (antibody, human IgG4 S228P, kappa, V domains shown)
VH: B5 VH with E10V, K12A, A16S, M70I, R72A, T74K, V79A, R87T, L115T
VL: B3 VL with S7A, P80A, Q100G
notes: Humanized, human IgG4 (S228P) kappa; H3 read as hCTLA4.27VH3, L5 as hCTLA4.27VL5
B13: hCTLA4.27H6L5 (antibody, human IgG4 S228P, kappa, V domains shown)
VH: B3 VH
VL: B3 VL with S7A, P80A, Q100G
notes: Humanized, human IgG4 (S228P) kappa; H6 read as hCTLA4.27VH6, L5 as hCTLA4.27VL5
B14: hCTLA4.27H3L3 (antibody, human IgG4 S228P, kappa, V domains shown)
VH: B5 VH with E10V, K12A, A16S, M70I, R72A, T74K, V79A, R87T, L115T
VL: B3 VL with R18T, P80S
notes: Humanized, human IgG4 (S228P) kappa; H3 read as hCTLA4.27VH3, L3 as hCTLA4.27VL3
B15: hCTLA4.27H2L3 (antibody, human IgG4 S228P, kappa, V domains shown)
VH: B4 VH
VL: B3 VL with R18T, P80S
notes: Humanized, human IgG4 (S228P) kappa; H2 read as hCTLA4.27VH2, L3 as hCTLA4.27VL3
B16: hCTLA4.27H3L2 (antibody, human IgG4 S228P, kappa, V domains shown)
VH: B5 VH with E10V, K12A, A16S, M70I, R72A, T74K, V79A, R87T, L115T
VL: B3 VL with L48I, D70E, Y71F, T72S, T74S, Q100G, L104V
notes: Humanized, human IgG4 (S228P) kappa; H3 read as hCTLA4.27VH3, L2 as hCTLA4.27VL2
B17: hCTLA4.27H6L3 (antibody, human IgG4 S228P, kappa, V domains shown)
VH: B3 VH
VL: B3 VL with R18T, P80S
notes: Humanized, human IgG4 (S228P) kappa; H6 read as hCTLA4.27VH6, L3 as hCTLA4.27VL3
B18: hCTLA4.27H4L5 (antibody, human IgG4 S228P, kappa, V domains shown)
VH: B5 VH
VL: B3 VL with S7A, P80A, Q100G
notes: Humanized, human IgG4 (S228P) kappa; H4 read as hCTLA4.27VH4, L5 as hCTLA4.27VL5

The target in the first assay is T1, Mou-Hum-CTLA-4. The assay is described as follows: CELISA on CHO-K1 cells transiently transfected with Mou-Hum-CTLA-4, panel Mouse/Human. The method, then:
The cDNAs encoding these constructs (SEQ ID NO: 41 and 43, respectively) were synthesized and subcloned into the pCI-Neo vector (GeneArt). […] To this end CHO-K1 cells were transiently transfected, using Lipofectamine 2000 (Invitrogen), with the pCI-Neo vectors expressing human CTLA-4 (hCTLA-4), mouse CTLA-4 (mCTLA-4) (SEQ ID NO: 45), Hum-Mou-CTLA-4, and Mou-Hum-CTLA-4 respectively. The transfected cells were cultured at 37° C., 5% CO₂ and 95% humidity in medium (DMEM-F12 (Gibco) with 5% New Born Calf serum (Biowest) and Pen/Strep (Gibco)) until confluent. Subsequently, cells were trypsinized and seeded in tissue culture plates and cultured at 37° C., 5% CO₂ and 95% humidity in culture medium until confluent. Then, culture medium was removed and cells were incubated for 1 hour at 37° C., 5% CO₂ and 95% humidity with hCTLA-4 antibodies. Next, cells were washed with PBS/0.05% Tween (PBST) and incubated for 1 hour at 37° C., 5% CO₂ and 95% humidity with 1:2,000 goat-anti-human IgG-HRP (Jackson Immunoresearch). After that, cells were washed 3 times with PBST and anti-CTLA-4 immunoreactivity was visualized with TMB Stabilized Chromagen (Invitrogen).
As to B1, the EC50 (read off the curve) (as a rule, the concentration at which the effect is half-maximal) was around 0.07 nM.

The target in another assay is T2, human CTLA-4 (Y166G and Y183G) expressed on CHO-K1.hCTLA-4 cells (human, UniProt P16410 36-223). Nature of the assay: CELISA on CHO-K1.hCTLA-4 cells (Example 6). The method, then:
(§1) In short, CELISA for hCTLA-4 binding was performed on CHO-K1.hCTLA-4 cells. […] Once the cells were confluent culture medium was removed and cells were incubated for 1 hour with the hCTL4.27 antibodies and control antibodies (10 μg/ml and dilutions thereof) at 37° C., 5% CO₂ and 95% humidity. […] Cells were then washed with PBST followed by addition of Streptavidin-HRP conjugate on the cells, which was incubated for 1 hour at 37° C., 5% CO₂ and 95% humidity. […] Reactions were stopped with 0.5 M H₂SO₄ and absorbances were read at 450 and 610 nm. IC50 values represent the concentration at which half of the inhibition is observed.
For B2, the EC50 (as a rule, the midpoint of the concentration-response curve) came out at 0.034 nM.

Another assay addresses T2, human CTLA-4 (Y166G and Y183G) …. Nature of the assay: CELISA, blockade of biotinylated hCD86/Fc binding to CHO-K1.hCTLA-4 cells (Example 6). The method, then:
as §1
As to B2, the IC50 (usually the point on the concentration scale where inhibition reaches its midpoint) turned out to be 1.18 nM.

A further assay shares this target. Nature of the assay: CELISA, blockade of biotinylated hCD80/Fc binding to CHO-K1.hCTLA-4 cells. The method, then:
CHO-K1.hCTLA-4 cells were seeded in tissue culture plates and incubated at 37° C., 5% CO₂ and 95% humidity in culture medium. Once the cells were confluent culture medium was removed and cells were incubated for 1 hour with the humanized hCTL4.27 antibody variants (10 μg/ml and dilutions thereof) at 37° C., 5% CO₂ and 95% humidity. […] Cells were then washed with PBST followed by addition of Streptavidin-HRP conjugate on the cells, which was incubated for 1 hour at 37° C., 5% CO₂ and 95% humidity. […] Reactions were stopped with 0.5 M H₂SO₄ and absorbances were read at 450 and 610 nm. […] IC50 values represent the concentration at which half of the inhibition is observed.
Target sequence in this assay (P16410 36-223 Y201G/Y218G limits assumed): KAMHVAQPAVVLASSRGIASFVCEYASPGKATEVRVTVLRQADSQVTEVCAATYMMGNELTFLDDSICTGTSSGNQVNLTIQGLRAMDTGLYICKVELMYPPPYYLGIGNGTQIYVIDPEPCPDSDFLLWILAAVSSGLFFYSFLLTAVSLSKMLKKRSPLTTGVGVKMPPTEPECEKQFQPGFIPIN
In turn, B3 yielded an IC50 of 2.06 nM.
For B4, the IC50 came out at 2.59 nM.
Consider B5, for which the IC50 is 2.52 nM.
Molecule B6 came in with an IC50 of 2.52 nM.
B7: the IC50 was 1.8 nM.
B8 returned an IC50 of 2.72 nM.
The same measure, in the same setting: next, B9: 3.33 nM; B10: 3.26 nM.
B11 had an IC50 of 2.98 nM.
The same measure, in the same setting: as for B12, the figure is 3.67 nM; as for B13, 2.57 nM; as for B14, 3.37 nM.
On the same count and under the same terms, as for B15, the figure is 2.97 nM.
Same read-out and setting: next, B16: 2.06 nM; B17: 1.82 nM.
Turning to B18, the IC50 is 3.08 nM.
On the same count and under the same terms, as for B2, the figure is 1.53 nM.

The target is the same in a further assay. Nature of the assay: CELISA on CHO-K1.hCTLA-4 cells. How it is done: Binding of the humanized antibodies to hCTLA-4 was studied in CELISA format. CHO-K1.hCTLA-4 cells were seeded in culture medium (DMEM-F12 (Gibco) with 10% Fetal Bovine Serum (Hyclone) and Pen/Strep (Gibco)) in tissue culture plates and cultured at 37° C., 5% CO₂ and 95% humidity until they were confluent. Subsequently, culture medium was removed and cells were incubated for 1 hour at 37° C., 5% CO₂ and 95% humidity with purified hCTLA-4 antibodies (10 μg/ml and dilutions thereof). Next, cells were washed with PBS/0.05% Tween (PBST) and incubated for 1 hour at 37° C., 5% CO₂ and 95% humidity with goat-anti-human IgG-HRP (Southern Biotechnology) or goat-anti-mouse IgG-HRP (Southern Biotechnology). Subsequently, cells were washed 3 times with PBST and anti-hCTLA-4 immunoreactivity was visualized with TMB Stabilized Chromagen (Invitrogen). Reactions were stopped with 0.5 M H₂SO₄ and absorbances were read at 450 and 610 nm.
Target sequence in this assay (P16410 36-223 Y201G/Y218G limits assumed): as above
B3 came in with an EC50 of 0.044 nM.
The same measure, in the same setting: next, B4: 0.044 nM; B5: 0.047 nM; B6: 0.07 nM.
On the same count and under the same terms, next, B7: 0.027 nM.
In the case of B8, the response was half-maximal at 0.045 nM (EC50).
Regarding B9, the EC50 was 0.07 nM.
Same read-out and setting: as for B10, the figure is 0.051 nM.
Still for that read-out and setting: next, B11: 0.042 nM; B12: 0.082 nM; B13: 0.036 nM.
Still for that read-out and setting: as for B14, the figure is 0.101 nM; as for B15, 0.051 nM.
B16 returned an EC50 of 0.065 nM.
For B17, it took 0.028 nM to reach a half-maximal effect (EC50).
On the same count and under the same terms, as for B18, the figure is 0.061 nM; as for B2, 0.022 nM.

The next assay has the same target. Nature of the assay: CELISA, blockade of biotinylated hCD80/Fc binding to CHO-K1.hCTLA-4 cells (Example 6). The method, then:
as §1
For the molecule B2, the IC50 came to 1.45 nM.
